The text below walks through data of publication PMC9485262, “Structural characterization of a soil viral auxiliary metabolic gene product – a functional chitosanase” (Nature Communications, 2022).

Assay [1] deals with V-Csn (Viral Chitosanase), soil viral GH75 chitosanase AMG product (soil virus (predicted Proteobacteria phage; forest soil metagenome)). As to the kind of experiment: SEC; size exclusion chromatography of purified V-Csn in solution; conditions of this observation are not given (gel filtration in the purification used a Superdex HiLoad 26/60 column). (In general: SEC sorts molecules by how far they enter the pores of the column.)

The target in the next assay is T1, V-Csn (uncultured phage, UniProt Z9RE59BL32).
T1 construct: model residues 1-224 plus linker GHS; dimer in solution
As to the kind of experiment: X-ray crystal structure of co-crystal, […] A. In kind it is binding. The conditions noted are these: co-crystallised with about 5 mM chitohexaose, 0.2 M ammonium sulfate, 0.1 M sodium acetate pH 4.6, 30% MMePEG2000; active-site cleft; three of six GlcN residues modelled.

The stoichiometry N is the number of molecules, sites or subunits per partner or assembly.

Turning to “V-Csn (Viral Chitosanase), soil viral GH75 chitosanase AMG product (enzyme)”, the stoichiometry N in assay [1] was 2.
On to `N[C@H]1[C@H](O[C@H]2[C@H](O)[C@@H](N)[C@H](O[C@H]3[C@H](O)[C@@H](N)[C@H](O[C@H]4[C@H](O)[C@@H](N)[C@H](O[C@H]5[C@H](O)[C@@H](N)[C@H](O[C@H]6[C@H](O)[C@@H](N)C(O)O[C@@H]6CO)O[C@@H]5CO)O[C@@H]4CO)O[C@@H]3CO)O[C@@H]2CO)O[C@H](CO)[C@@H](O)[C@@H]1O` (some centres unmarked) [chitohexaose], for which the “X-ray crystal structure of co-crystal, 1.30 A” value at V-Csn is listed as “gave a complex with the E157Q mutant only”.
